Patent publication US20180021429A1 (PHARMA FOODS INTERNATIONAL, published 2018)

Key:
[1] = target: T1, His-tagged human FSTL1 (amino acid sequence of human FSTL1 used in Examples, SEQ ID NO: 70) (human, UniProt Q12841 21-308); experiment: ELISA, human FSTL1 coated (FIG. 3A)
T1 construct: Parent of the deletion mutants
T1 sequence: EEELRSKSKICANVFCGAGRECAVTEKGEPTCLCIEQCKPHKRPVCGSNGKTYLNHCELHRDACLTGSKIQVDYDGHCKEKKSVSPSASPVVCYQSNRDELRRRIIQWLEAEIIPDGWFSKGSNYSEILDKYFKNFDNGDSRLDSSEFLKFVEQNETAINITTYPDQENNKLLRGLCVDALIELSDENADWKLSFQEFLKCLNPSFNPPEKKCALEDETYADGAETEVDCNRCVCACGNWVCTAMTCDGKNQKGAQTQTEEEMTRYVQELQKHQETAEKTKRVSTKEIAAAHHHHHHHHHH

[2] = target: T2, His-tagged mouse FSTL1 (amino acid sequence of mouse FSTL1 used in Examples, SEQ ID NO: 72) (mouse, UniProt Q62356 19-306); experiment: ELISA, mouse FSTL1 coated (FIG. 3B)
T2 sequence: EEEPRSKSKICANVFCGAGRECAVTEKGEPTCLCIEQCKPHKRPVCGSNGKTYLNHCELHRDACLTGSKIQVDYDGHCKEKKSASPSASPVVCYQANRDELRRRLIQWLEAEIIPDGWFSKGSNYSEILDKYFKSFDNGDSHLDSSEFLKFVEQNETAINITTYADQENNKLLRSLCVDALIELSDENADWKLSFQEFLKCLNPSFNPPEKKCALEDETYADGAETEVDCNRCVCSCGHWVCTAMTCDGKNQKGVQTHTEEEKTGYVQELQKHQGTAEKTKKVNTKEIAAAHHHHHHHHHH

B1: anti-FSTL1 antibody clone #22 (chicken-mouse chimeric antibody) (antibody, mouse IgG1, kappa, V domains shown)
VH: AVTLDESGGGLQTPGGALSLVCKASGFTFSSNGMAWVRQAPGKGLELVARINSSGSYTNYGAAVKGRATISRDNGQSTVRLQLNNLRAEDTGTYYCAKGASGYGAYPGNIDAWGHGTEVIVSS
VL: ASTQPSSVSANPGETVKITCSGGSGSYGWFQQKSPGSAPVTVIYWDDRRPSDIPSRFSGSKSGSIHTLTITGVQADDEAVYLCGNAVRSGTGYVGVFGAGTTLTVLG
- binding result [1]: binds
- binding result [2]: binds
